Experimental data: US20210380678A1 (SURROZEN OPERATING, published 2021)
Residue numbers refer to the chain shown, from its start.

T1: human ASGR1 extracellular domain (hASGR1 ECD) (human, UniProt P07306 62-291, biotinylated (His-Avi tag))
T1 construct: His-Avi tag at the N-terminus, biotinylated for BLI; also called human ASGR1 ECD
T1 sequence: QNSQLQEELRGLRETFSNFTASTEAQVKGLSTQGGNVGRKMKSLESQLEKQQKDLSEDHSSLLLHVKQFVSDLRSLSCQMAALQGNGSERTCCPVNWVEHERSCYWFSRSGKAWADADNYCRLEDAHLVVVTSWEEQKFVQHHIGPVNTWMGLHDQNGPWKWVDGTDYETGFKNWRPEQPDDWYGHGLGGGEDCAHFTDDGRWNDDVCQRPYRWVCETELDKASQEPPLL

T2: cynomolgus ASGR1 extracellular domain (cynoASGR1 ECD) (cynomolgus, UniProt P07306 62-291 (human entry))
T2 construct: Cloned with a His/Avi tag
T2 chain: T1 sequence with S3A, E7R, F16L, T91A

T3: human ZNRF3 extracellular domain (hZNRF3 ECD) (human, UniProt Q9ULT6 56-219, biotinylated (His-Avi tag))
T3 construct: Expressed with a His-Avi tag at the N-terminus and biotinylated; also called ZRNF3
T3 sequence: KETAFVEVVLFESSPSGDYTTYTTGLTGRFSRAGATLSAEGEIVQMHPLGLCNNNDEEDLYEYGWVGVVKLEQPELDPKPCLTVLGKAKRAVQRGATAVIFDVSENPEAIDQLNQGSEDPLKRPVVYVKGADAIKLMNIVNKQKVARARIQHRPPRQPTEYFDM

B1: LP1-3E20 (antibody, V domains shown)
VH: QVQLQQSGAELAKPGASVKMSCKASGYTFTSYWIHWVKQRPGQGLEWIGYINPSSGYAEYNQKFKVRATLTADKSSSTAYMQLSSLTSEDSAVYYCARESYYSFDYTMDYWGQGTSVTVSS
VL: DIKMTQSPSSMYASLGERVTITCKASQDINSYLSWFQQKPGKSPKTLIYRANRLVDGVPSRFSGSGSGQDYSLTISSLEYEDMGIYYCLQYDDLWTFGGGTKLEIK
notes: Hybridoma antibody as screened
B2: LP1-1F8 (antibody, V domains shown)
VH: EVKLVESGGGLVKPGGSLKLSCAASGFTFSTYTMSWVRQTPAKRLEWVATISSIGVNTYYPDSVKGRFTISRDNARNTLYLQVSSLRSEDTAMYYCARHVDYYDGISFDYWGQGTTLTVSS
VL: DIVMSQSPSSLAVSAGEKVTMSCKSSQSLFNSRTRKNYLAWYQQKPGQSPKLLIYWASTRESGVPDRFTGSGSGTDFTLTISSVQAEDLAVYYCKQSYYLLTFGAGTKLELK
notes: as for B1
B3: LP1-2E12 (antibody, V domains shown)
VH: DVQLQESGPGLVKPSQSLSLTCSVTGYSITSGYYWNWIRQFPGNKLEWMGSIGYDDTNHYNPSLKNRISITRDTSKNQFFLKLNSVTTEDTATYYCAGDYPFAFWGQGTLVTVSA
VL: DVVVTQTPLSLPVSFGDRVSISCRSSQSLANSYGNTYLSWYLHKPGQSPQLLIYGISNRFSGVPDRFSGSGSGTDFTLKISTIKPEDLGMYYCLQGTHQPLTFGAGTKLELK
notes: as for B1
B4: LP1-9C3 (antibody, V domains shown)
VH: QVTLKESGPGILQPSQTLSLTCSFSGFSLSTSYMGVSWIRKPSGKGLEWLAHIFWDDDKRYNPSLKSRLTISKDTSSNQVFLMITSVETADTATYYCGGPYYPFTYWGQGTLVTVSA
VL: B3 VL with R18Q, M90I, G96A, L101W, A105G, L111I
notes: as for B1
B5: LP1-1N15 (antibody, V domains shown)
VH: EVQLQQSGPELVKPGASVKMSCKASGYTFTDYYMNWVKQSHGESLEWIGRVIPSNGGTNYNQKFKGKATLTVDKSLTTAYMQLNSLTSEDSAVYFCARGMDYWGPGTSVTVSS
VL: DIKMTQSPSSMYASLGERVTITCKASQDINSHLSWFQQKPGKSPKTLIIRANRLVDGVPSRFSGSGSGQDYSLTISSPEYEEMGIYYCLQYDEFPFTFGGGTKLEIK
notes: as for B1
B6: LP1-9M16 (antibody, V domains shown)
VH: EVQLQQSGPELVKPGASVKMSCKASGYTFTDYYMNWVKQSHGKSLEWIGRVNPNNGGSNYNQKFKGKATLTVDKSLSTAYMQLNSLTSEDSAVYYCASRNFDVWGAGTTVTVSS
VL: B5 VL with H32Y, I49Y, V55A, S77N, P78L, E82D, F96L, G100A, I106L
notes: as for B1
B7: LP1-1P5 (antibody, V domains shown)
VH: QVQLQQSGPELVRPGTSVKISCKASGYTFLTYWMNWVKQRPGQGLEWIGQIFPATGITYYSEMFKDKATLTEDTSSTTAYMQLSSLTSEATAVYFCARRRAYHSNFFDYWGQGTTLTVSS
VL: DIVMTQSQKFMSTSVGDRVSVTCKASQNVGTNVAWYQQKPGQSPKALIYSASYRYSGVPDRFTGSGSGTDFTLTISNVQSEDLAEYFCQQYNSYPLTFGAGTKLELK
notes: as for B1
B8: LP1-3A24 (antibody, V domains shown)
VH: EVQLQQSGPELVKPGASVKMSCKASGYTFTDYYINWVRQSHGKSLEWIGRVIPSNGGSNYNQKFKGKATLTVDKSLSTAYMHLNSLTSEDSAVYYCATQLGRWGQGTLVTVSA
VL: B7 VL with T31S, Y36F, A51S, S76T, Y94F
notes: as for B1
B9: LP1-1P13 (antibody, V domains shown)
VH: EVQLQQSGPELVKPGASVKISCKASGYSFTDYFMNWVKQSHGKSLEWIGRFNPFNGQTFYNQEFKGKATLTVDKSSSTAHMELRSLTSEDSAVYYCARRGRYDVYYVLDYWGQGTSVTVSS
VL: DIQMTQSPASLSASVGQTVIITCRTSENIYSNLAWYQQKQGKSPQLLVYAATNLADGVPSRFSGSGSGTQYYLKINSLQSEDFGSYYCQHFWGSTWTFGGGTKLDIK
notes: as for B1
B10: LP1-2I22 (antibody, V domains shown)
VH: B9 VH with D31G, S77D, V107A
VL: B9 VL with Q17E, T25A, A50G, P59T, Y71F, Y72S, N76D, S94T, D105E
notes: as for B1
B11: LP1-10C22 (antibody, V domains shown)
VH: EVQLVESGGDLVKPGGSLKLSCAASGFTFSSYGMSWVRQTPDKRLEWVASISSGGSYTYYPDSVKGRFTISRDNAQNTLYLQMSSLKSEDTAMYYCVRHEEYGKSGFAYWGQGTLITVSA
VL: DVLMTQTPLSLPVSLGDQASISCRSSQGIVHSNGNIYLEWYLQKPGQSPKLLIYKVSNRFSGVPDRFSGSGSGTDFTLKISRVEAEDLGVYYCFQGSHVPPTFGGGTKLEIK
notes: as for B1
B12: LP1-7B13 (antibody, V domains shown)
VH: EVQLQQSGPEVVKPGASVKMSCKTSGFTFTDYYMNWVKQGHGKSLEWIGRVNPSNDDTRYNQKFKGKATLTVDKSLSTAYMQLNSLTSEDSAVYYCTRWFYFDYWGQGTTLTVSS
VL: DIVLTQSPATLSVTPGDRVSLSCRASQSISNYLHWYQQKSHESPRLLIKFASQSISGIPSRFSGSGSGTDFTLTINSVETEDFGMYFCQQSNSWPLTFGAGTKLELK
notes: as for B1
B13: LP1-2I13 (antibody, V domains shown)
VH: EVQLVESGGGLVKPGGSRKLSCAASGFTFSDYGMHWVRQAPEKGLEWVAYISSGSSTIYYADTVKGRFTISRDNAKNTLFLQMTSLRSEDTAMYYCSRKGGFGDYEKSYAMDYWGQGTSVTVSS
VL: DIQMTQSPASLSASVGETVTITCRASENIYSYLVWYQQKQGKSPQLLVYNAKTLAEGVPSRFSGSGSGTQFSLKINSLQPEDFGSYYCQHHYGTWTFGGGIKLEIK
notes: as for B1
B14: LP1-6H3 (antibody, V domains shown)
VH: QAYLQQSGAELVRPGASVKMSCKASGYTFSRFDMHWVKQTPRQGLEWIGVIYPGNGDTSYNQKFRDKASLTVDKSSSTAYMQLSSLTSEDSAVYFCASSYYGNPWGQGTTLTVSS
VL: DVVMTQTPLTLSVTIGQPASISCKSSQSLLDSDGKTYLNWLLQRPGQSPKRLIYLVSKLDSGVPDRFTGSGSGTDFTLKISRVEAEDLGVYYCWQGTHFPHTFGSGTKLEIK
notes: as for B1
B15: LP1-7I20 (antibody, V domains shown)
VH: EVKLVESGGGLVQPGGSLSLSCAASGFTFTDYYMSWVRQPPGKALEWLALIRNKANGYTTEYSASVKGRFTISRDNSQSILYLQMNALRAEDSATYYCAVTYGAYWGQGTLVTVSA
VL: DIQMTQSPASLSASVGETVTITCRTSENIYSYLAWYQQKQGKSPQLLVYNAKTLAKGVPSRFSGSGSGTQFSLKINGLQPEDFGNYYCQHHYGTPYTFGGGTKVEIK
notes: as for B1
B16: LP1-8M24 (antibody, V domains shown)
VH: QVQLQQSGAELARPGASVKLSCKASGYTFTNYGINWVKQRTGQGLEWIGEIFPRSDNTFYNEKFKGKATLTADKSSTTAYMELRSLTSEDSAVYFCARKGRDYGTSHYFDYWGQGTTLTVSS
VL: DIQMTQSPASLSVSVGETVTITCRISENIYSNLAWYQQKQGKSPHLLVYAAINLADGVPSRFSGSGSGTQFSLKINSLQSEDFGSYYCQHFWGTPFTFGSGTKLEIK
notes: as for B1
B17: 028S-B04 (antibody, V domains shown)
VH: QVQLVQSGAEVKKPGASVKVSCKASGYTFRRYPMHWVRQAPGQGLEWMGIINPSGGSTSYAQKFQGRVTMTRDTSTSTVYMELSSLRSEDTAVYYCARDKVGAIDYWGQGTLVTVSS
VL: DIQMTQSPSSLSASVGDRVTITCRASQGISNYLAWYQQKPGKAPKLLIYAASSLQRGVPSRFSGSGSGTDFTLTISSLQPEDFATYYCQQSYSTPLTFGGGTKVEIK
B18: 028S-C04 (antibody, V domains shown)
VH: B17 VH with R30T, P33Y, D99G, K100G, V101S, A103W, I104L
VL: B17 VL with G28S, N31T, Y32W, S53T, R56S, T94S
B19: 028S-D09 (antibody, V domains shown)
VH: B17 VH with R30T, Y32H, P33Y, D99G, K100S, V101L, A103Y, I104F, Y106L, Q109R
VL: not shown

Molecular target: T1, human ASGR1 extracellular domain …
Experiment: hybridoma screening on recombinant ECD

Row | binding result | Binder
1 | binds | B1
2 | binds | B2
3 | binds | B3
4 | binds | B4
5 | binds | B5
6 | binds | B6
7 | binds | B7
8 | binds | B8
9 | binds | B9
10 | binds | B10
11 | binds | B11
12 | binds | B12
13 | binds | B13
14 | binds | B14
15 | binds | B15
16 | binds | B16

Molecular target: T2, cynomolgus ASGR1 extracellular domain …
Experiment: hybridoma screening on recombinant ECD

Row | binding result | Binder
17 | binds | B1
18 | binds | B2
19 | binds | B3
20 | binds | B4
21 | binds | B5
22 | binds | B6
23 | binds | B7
24 | binds | B8
25 | binds | B9
26 | binds | B10
27 | binds | B11
28 | binds | B12
29 | binds | B13
30 | binds | B14
31 | binds | B15
32 | binds | B16

Molecular target: T3, human ZNRF3 extracellular domain …
Experiment: BLI (Octet) KD grade: ** = 1 uM > KD >= 100 nM
Method: (§1) Binding characterization of recombinant Fabs or IgG' s was carried out using Bio-Layer Interferometry (BLI) using the Octet Red 96 platform (PALL ForteBio, Fremont, Calif.) with streptavidin (SA) coated biosensors (PALL ForteBio,). […] Following immobilization, sensors were dipped into samples containing test molecules at seven concentrations. Values for KD were determined by fitting the resulting data with a 1:1 binding model.

Row | KD [nM] | Binder
33 | 100 to 1000 | B17
34 | 100 to 1000 | B18
35 | 100 to 1000 | B19

Molecular target: T3, human ZNRF3 extracellular domain …
Experiment: BLI (Octet), biotinylated antigen on SA sensor, 1:1 fit
Method: as §1

Row | Kd [nM] | Binder
36 | 256 | B17
37 | 164 | B18
38 | 354 | B19
